Reference: PMC3575510, “Antibiotic Inducibility of the mexXY Multidrug Efflux Operon of Pseudomonas aeruginosa: Involvement of the MexZ Anti-Repressor ArmZ” (PLoS ONE, 2013)

Target: T1, MexZ (LexA DNA-binding domain fusion encoded by pSF004, pMS604::mexZ) (P. aeruginosa, UniProt G3XCU9 1-210)
T1 construct: also called repressor of mexXY; mexZ product; source: E. coli SU202, bacterial two-hybrid fusion expressed from pSF004 (pMS604::mexZ)
T1 sequence: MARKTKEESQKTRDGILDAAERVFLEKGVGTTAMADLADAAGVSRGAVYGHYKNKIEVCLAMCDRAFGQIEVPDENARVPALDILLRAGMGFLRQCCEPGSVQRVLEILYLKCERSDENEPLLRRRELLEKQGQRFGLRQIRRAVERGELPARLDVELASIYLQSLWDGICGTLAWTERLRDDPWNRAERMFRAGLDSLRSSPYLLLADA
Test: two-hybrid; bacterial LexA-based two-hybrid in E. coli SU202 (pMS604 and pDP804 derivatives); cells grown to mid-log phase in L-broth with 5 mM IPTG; interaction represses lacZ, read as reduced β-galactosidase activity
Conditions: partners not purified

B1: ArmZ (PA5471) wild type (LexA DNA-binding domain fusion encoded by pSF005, pDP804::armZ) (natural protein)
chain: MGNYIKPLSAGVALIASDSTWIEGKAIQQLQTTAELDGMCRVVGLPDLHPGRGYPVGAAFFSVGRFYPALVGNDIGCGMALWETGLALGKLSADKLEKRLGNLDLPLDETWSDCIEALDLPAREHWRALGTIGGGNHFAELQQVETVFDQAALHALGLDADRLQLLVHSGSRGLGQAILQEHVSLHGHAGLLDGSLEASAYLARHADALRFAEGNRQLIARRILERLRCDGLELLDINHNLVVPAQVDGVDGWLHRKGATPADQGVLVIPGSRGDYSYLVEPVPSAQSLFSLAHGAGRKWQRGECRERLAARFSVDQLGRTRLGSRVICGDRQLIYEEAPEAYKGIDSVVGALLEAGLLRLVARLKPVLTYKTRGECCR
notes: also called anti-repressor MexZ; ArmZ (WT); source: E. coli SU202, bacterial two-hybrid fusion expressed from pSF005 (pDP804::armZ)
fold reduction of β-galactosidase activity (relative to SU202 carrying the mexZ plasmid only): 3 fold
